# Test results from article PMC9482650, “Quantitative fragmentomics allow affinity mapping of interactomes” (Nature Communications, 2022).
# Substitutions are numbered along the chain they refer to.
# Target: T1, SNTB1, Q13884
# T1 sequence (Q13884 107-205, limits assumed, looked up): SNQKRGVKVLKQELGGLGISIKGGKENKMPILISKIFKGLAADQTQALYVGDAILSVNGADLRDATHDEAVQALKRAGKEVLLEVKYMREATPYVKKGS
# Assay: holdup assay
# Design: key: below the threshold = too weak to quantify, mostly under pKd 3.1 to 4
# Conditions: plain residues with an end cap or a label only (N-terminal biotin on a linker: ado-ado)
row,pKd,Binder
1,below the threshold,"LKVPPEERLI [CRB2, Q5IJ48]"
2,3.57,"YRLAQESGLV [ABCC6, O95255]"

# Target: T2, PDZD2_2, O15018
# T2 sequence (O15018 329-429, limits assumed, looked up): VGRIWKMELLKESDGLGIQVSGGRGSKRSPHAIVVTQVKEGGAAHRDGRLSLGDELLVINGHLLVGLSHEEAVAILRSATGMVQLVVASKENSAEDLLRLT
# Assay: holdup assay
# Design: key: below the threshold = too weak to quantify, mostly under pKd 3.1 to 4
# Conditions: plain residues with an end cap or a label only (N-terminal biotin on a linker: ado-ado)
row,pKd,Binder
1,below the threshold,"LKVPPEERLI [CRB2, Q5IJ48]"
2,3.51,"YRLAQESGLV [ABCC6, O95255]"

# Target: Inadl_3, Q8NI35
# Assay: holdup assay
# Design: key: below the threshold = too weak to quantify, mostly under pKd 3.1 to 4
# Conditions: plain residues with an end cap or a label only (N-terminal biotin on a linker: ado-ado)
# Chain of Inadl_3, Q8NI35 (Q8NI35 359-469): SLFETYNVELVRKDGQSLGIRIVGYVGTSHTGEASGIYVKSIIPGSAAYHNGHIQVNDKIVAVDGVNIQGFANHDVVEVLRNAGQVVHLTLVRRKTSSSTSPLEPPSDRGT
row,pKd,Binder
1,3.6,"LKVPPEERLI [CRB2, Q5IJ48]"
2,below the threshold,"YRLAQESGLV [ABCC6, O95255]"

# Target: T3, APBA2_2, Q99767
# T3 sequence (Q99767 654-744, limits assumed, looked up): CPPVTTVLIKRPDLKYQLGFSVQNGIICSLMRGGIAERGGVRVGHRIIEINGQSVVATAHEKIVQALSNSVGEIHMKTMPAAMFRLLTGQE
# Assay: holdup assay
# Design: key: below the threshold = too weak to quantify, mostly under pKd 3.1 to 4
# Conditions: plain residues with an end cap or a label only (N-terminal biotin on a linker: ado-ado)
row,pKd,Binder
1,below the threshold,"LKVPPEERLI [CRB2, Q5IJ48]"
2,below the threshold,"YRLAQESGLV [ABCC6, O95255]"

# Target: DLG1_3, Q12959
# Assay: holdup assay
# Design: key: below the threshold = too weak to quantify, mostly under pKd 3.1 to 4
# Conditions: plain residues with an end cap or a label only (N-terminal biotin on a linker: ado-ado)
# Chain of DLG1_3, Q12959 (Q12959 457-571): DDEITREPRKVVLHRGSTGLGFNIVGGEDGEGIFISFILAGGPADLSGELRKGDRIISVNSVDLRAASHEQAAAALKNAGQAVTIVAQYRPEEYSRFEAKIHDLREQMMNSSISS
row,pKd,Binder
1,below the threshold,"LKVPPEERLI [CRB2, Q5IJ48]"
2,below the threshold,"YRLAQESGLV [ABCC6, O95255]"

# Target: T4, LNX2_3, Q8N448
# T4 sequence (Q8N448 463-564, limits assumed, looked up): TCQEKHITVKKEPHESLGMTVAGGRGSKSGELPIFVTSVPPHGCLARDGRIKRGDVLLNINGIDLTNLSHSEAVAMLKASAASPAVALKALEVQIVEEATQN
# Assay: holdup assay
# Design: key: below the threshold = too weak to quantify, mostly under pKd 3.1 to 4
# Conditions: plain residues with an end cap or a label only (N-terminal biotin on a linker: ado-ado)
row,pKd,Binder
1,below the threshold,"LKVPPEERLI [CRB2, Q5IJ48]"
2,below the threshold,"YRLAQESGLV [ABCC6, O95255]"

# Target: T5, ARHGAP21, Q5T5U3
# T5 sequence (Q5T5U3 45-169, limits assumed, looked up): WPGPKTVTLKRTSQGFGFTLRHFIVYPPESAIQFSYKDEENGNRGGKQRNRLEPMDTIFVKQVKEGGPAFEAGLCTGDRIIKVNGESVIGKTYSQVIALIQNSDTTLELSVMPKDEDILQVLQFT
# Assay: holdup assay
# Design: key: below the threshold = too weak to quantify, mostly under pKd 3.1 to 4
# Conditions: plain residues with an end cap or a label only (N-terminal biotin on a linker: ado-ado)
row,pKd,Binder
1,3.89,"LKVPPEERLI [CRB2, Q5IJ48]"
2,4.1,"YRLAQESGLV [ABCC6, O95255]"

# Target: DLG1_2, Q12959
# Assay: holdup assay
# Design: key: below the threshold = too weak to quantify, mostly under pKd 3.1 to 4
# Conditions: plain residues with an end cap or a label only (N-terminal biotin on a linker: ado-ado)
# Chain of DLG1_2, Q12959 (Q12959 314-412): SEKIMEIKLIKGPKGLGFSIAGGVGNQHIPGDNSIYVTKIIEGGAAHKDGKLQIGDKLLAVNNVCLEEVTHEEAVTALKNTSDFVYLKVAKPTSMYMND
row,pKd,Binder
1,below the threshold,"LKVPPEERLI [CRB2, Q5IJ48]"
2,below the threshold,"YRLAQESGLV [ABCC6, O95255]"

# Target: TJP1_3, Q07157
# Assay: holdup assay
# Design: key: below the threshold = too weak to quantify, mostly under pKd 3.1 to 4
# Conditions: plain residues with an end cap or a label only (N-terminal biotin on a linker: ado-ado)
# Chain of TJP1_3, Q07157 (Q07157 416-512): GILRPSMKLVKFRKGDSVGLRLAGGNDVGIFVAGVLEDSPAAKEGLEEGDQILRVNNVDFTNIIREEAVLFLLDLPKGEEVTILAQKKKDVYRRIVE
row,pKd,Binder
1,below the threshold,"LKVPPEERLI [CRB2, Q5IJ48]"
2,below the threshold,"YRLAQESGLV [ABCC6, O95255]"

# Target: T6, HTRA4, P83105
# T6 sequence (P83105 378-476, limits assumed, looked up): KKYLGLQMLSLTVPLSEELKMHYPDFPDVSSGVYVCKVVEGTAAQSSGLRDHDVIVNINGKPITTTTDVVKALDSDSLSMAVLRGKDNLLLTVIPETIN
# Assay: holdup assay
# Design: key: below the threshold = too weak to quantify, mostly under pKd 3.1 to 4
# Conditions: plain residues with an end cap or a label only (N-terminal biotin on a linker: ado-ado)
row,pKd,Binder
1,below the threshold,"LKVPPEERLI [CRB2, Q5IJ48]"
2,3.79,"YRLAQESGLV [ABCC6, O95255]"

# Target: T7, LIN7B, Q9HAP6
# T7 sequence (Q9HAP6 88-185, limits assumed, looked up): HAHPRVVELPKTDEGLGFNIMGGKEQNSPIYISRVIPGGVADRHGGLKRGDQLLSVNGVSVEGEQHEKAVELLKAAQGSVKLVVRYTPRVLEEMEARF
# Assay: holdup assay
# Design: key: below the threshold = too weak to quantify, mostly under pKd 3.1 to 4
# Conditions: plain residues with an end cap or a label only (N-terminal biotin on a linker: ado-ado)
row,pKd,Binder
1,below the threshold,"LKVPPEERLI [CRB2, Q5IJ48]"
2,below the threshold,"YRLAQESGLV [ABCC6, O95255]"

# Target: IL16_4, Q14005
# Assay: holdup assay
# Design: key: below the threshold = too weak to quantify, mostly under pKd 3.1 to 4
# Conditions: plain residues with an end cap or a label only (N-terminal biotin on a linker: ado-ado)
# Chain of IL16_4, Q14005 (Q14005 1229-1329): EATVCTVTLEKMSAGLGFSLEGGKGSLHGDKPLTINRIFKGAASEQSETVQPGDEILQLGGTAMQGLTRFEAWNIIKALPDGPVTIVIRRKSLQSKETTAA
row,pKd,Binder
1,below the threshold,"LKVPPEERLI [CRB2, Q5IJ48]"
2,below the threshold,"YRLAQESGLV [ABCC6, O95255]"

# Target: MAGI2_4, Q86UL8
# Assay: holdup assay
# Design: key: below the threshold = too weak to quantify, mostly under pKd 3.1 to 4
# Conditions: plain residues with an end cap or a label only (N-terminal biotin on a linker: ado-ado)
# Chain of MAGI2_4, Q86UL8 (Q86UL8 772-865): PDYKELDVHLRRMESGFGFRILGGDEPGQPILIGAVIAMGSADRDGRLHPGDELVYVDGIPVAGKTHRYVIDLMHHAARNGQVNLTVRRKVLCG
row,pKd,Binder
1,below the threshold,"LKVPPEERLI [CRB2, Q5IJ48]"
2,3.89,"YRLAQESGLV [ABCC6, O95255]"

# Target: T8, LIN7C, Q9NUP9
# T8 sequence (Q9NUP9 88-185, limits assumed, looked up): T7 sequence (Q9HAP6 88-185, limits assumed, looked up) with A2S, D13E, V35I, V40I, Q65H, S79K, R89K, A96S
# Assay: holdup assay
# Design: key: below the threshold = too weak to quantify, mostly under pKd 3.1 to 4
# Conditions: plain residues with an end cap or a label only (N-terminal biotin on a linker: ado-ado)
row,pKd,Binder
1,below the threshold,"LKVPPEERLI [CRB2, Q5IJ48]"
2,4.01,"YRLAQESGLV [ABCC6, O95255]"

# Target: DLG4_3, P78352
# Assay: holdup assay
# Design: key: below the threshold = too weak to quantify, mostly under pKd 3.1 to 4
# Conditions: plain residues with an end cap or a label only (N-terminal biotin on a linker: ado-ado)
# Chain of DLG4_3, P78352 (P78352 306-403): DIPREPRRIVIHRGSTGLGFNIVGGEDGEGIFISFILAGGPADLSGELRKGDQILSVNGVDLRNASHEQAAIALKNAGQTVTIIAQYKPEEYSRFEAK
row,pKd,Binder
1,below the threshold,"LKVPPEERLI [CRB2, Q5IJ48]"
2,below the threshold,"YRLAQESGLV [ABCC6, O95255]"

# Target: Inadl_6, Q8NI35
# Assay: holdup assay
# Design: key: below the threshold = too weak to quantify, mostly under pKd 3.1 to 4
# Conditions: plain residues with an end cap or a label only (N-terminal biotin on a linker: ado-ado)
# Chain of Inadl_6, Q8NI35 (Q8NI35 1058-1167): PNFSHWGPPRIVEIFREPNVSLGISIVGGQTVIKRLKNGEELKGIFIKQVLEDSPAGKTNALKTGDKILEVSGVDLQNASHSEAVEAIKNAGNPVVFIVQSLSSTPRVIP
row,pKd,Binder
1,below the threshold,"LKVPPEERLI [CRB2, Q5IJ48]"
2,below the threshold,"YRLAQESGLV [ABCC6, O95255]"

# Target: LAP2, Q96RT1
# Assay: holdup assay
# Design: key: below the threshold = too weak to quantify, mostly under pKd 3.1 to 4
# Conditions: plain residues with an end cap or a label only (N-terminal biotin on a linker: ado-ado)
# Chain of LAP2, Q96RT1 (Q96RT1 other isoform, or with tags, fused parts or gaps): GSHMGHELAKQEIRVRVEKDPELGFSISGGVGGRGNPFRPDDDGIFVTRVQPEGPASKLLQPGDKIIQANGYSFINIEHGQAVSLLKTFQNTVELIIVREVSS
row,pKd,Binder
1,below the threshold,"LKVPPEERLI [CRB2, Q5IJ48]"
2,below the threshold,"YRLAQESGLV [ABCC6, O95255]"

# Target: T9, PDZRN3_1, Q9UPQ7
# T9 sequence (Q9UPQ7 244-349, limits assumed, looked up): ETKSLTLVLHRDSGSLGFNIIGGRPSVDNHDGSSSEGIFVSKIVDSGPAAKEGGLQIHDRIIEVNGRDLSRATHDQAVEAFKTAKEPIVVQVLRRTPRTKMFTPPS
# Assay: holdup assay
# Design: key: below the threshold = too weak to quantify, mostly under pKd 3.1 to 4
# Conditions: plain residues with an end cap or a label only (N-terminal biotin on a linker: ado-ado)
row,pKd,Binder
1,below the threshold,"LKVPPEERLI [CRB2, Q5IJ48]"
2,below the threshold,"YRLAQESGLV [ABCC6, O95255]"

# Target: LNX1_3, Q8TBB1
# Assay: holdup assay
# Design: key: below the threshold = too weak to quantify, mostly under pKd 3.1 to 4
# Conditions: plain residues with an end cap or a label only (N-terminal biotin on a linker: ado-ado)
# Chain of LNX1_3, Q8TBB1 (Q8TBB1 500-596): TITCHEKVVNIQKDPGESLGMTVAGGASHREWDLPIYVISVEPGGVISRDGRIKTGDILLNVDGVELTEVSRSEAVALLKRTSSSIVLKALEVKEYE
row,pKd,Binder
1,below the threshold,"LKVPPEERLI [CRB2, Q5IJ48]"
2,below the threshold,"YRLAQESGLV [ABCC6, O95255]"

# Target: T10, SNTG2, Q9NY99
# T10 sequence (Q9NY99 68-166, limits assumed, looked up): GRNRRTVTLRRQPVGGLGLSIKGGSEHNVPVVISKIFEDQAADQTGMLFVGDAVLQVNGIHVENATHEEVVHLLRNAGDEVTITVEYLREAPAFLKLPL
# Assay: holdup assay
# Design: key: below the threshold = too weak to quantify, mostly under pKd 3.1 to 4
# Conditions: plain residues with an end cap or a label only (N-terminal biotin on a linker: ado-ado)
row,pKd,Binder
1,below the threshold,"LKVPPEERLI [CRB2, Q5IJ48]"
2,3.61,"YRLAQESGLV [ABCC6, O95255]"

# Target: T11, NHERF3_4, Q5T2W1
# T11 sequence (Q5T2W1 373-468, limits assumed, looked up): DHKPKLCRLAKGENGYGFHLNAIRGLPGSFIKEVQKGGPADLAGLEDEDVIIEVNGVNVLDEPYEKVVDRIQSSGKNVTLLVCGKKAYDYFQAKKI
# Assay: holdup assay
# Design: key: below the threshold = too weak to quantify, mostly under pKd 3.1 to 4
# Conditions: plain residues with an end cap or a label only (N-terminal biotin on a linker: ado-ado)
row,pKd,Binder
1,below the threshold,"LKVPPEERLI [CRB2, Q5IJ48]"
2,below the threshold,"YRLAQESGLV [ABCC6, O95255]"

# Target: T12, GRIP1_4, Q9Y3R0
# T12 sequence (Q9Y3R0 467-571, limits assumed, looked up): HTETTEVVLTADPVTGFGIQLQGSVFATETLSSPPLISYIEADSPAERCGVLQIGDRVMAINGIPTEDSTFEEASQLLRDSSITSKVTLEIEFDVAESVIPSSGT
# Assay: holdup assay
# Design: key: below the threshold = too weak to quantify, mostly under pKd 3.1 to 4
# Conditions: plain residues with an end cap or a label only (N-terminal biotin on a linker: ado-ado)
row,pKd,Binder
1,below the threshold,"LKVPPEERLI [CRB2, Q5IJ48]"
2,below the threshold,"YRLAQESGLV [ABCC6, O95255]"

# Target: LNX1_2, Q8TBB1
# Assay: holdup assay
# Design: key: below the threshold = too weak to quantify, mostly under pKd 3.1 to 4
# Conditions: plain residues with an end cap or a label only (N-terminal biotin on a linker: ado-ado)
# Chain of LNX1_2, Q8TBB1 (Q8TBB1 371-470): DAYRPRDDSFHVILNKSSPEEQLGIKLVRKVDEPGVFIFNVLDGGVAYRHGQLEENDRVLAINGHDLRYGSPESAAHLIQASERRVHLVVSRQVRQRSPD
row,pKd,Binder
1,below the threshold,"LKVPPEERLI [CRB2, Q5IJ48]"
2,below the threshold,"YRLAQESGLV [ABCC6, O95255]"

# Target: SCRIB_2, Q14160
# Assay: holdup assay
# Design: key: below the threshold = too weak to quantify, mostly under pKd 3.1 to 4
# Conditions: plain residues with an end cap or a label only (N-terminal biotin on a linker: ado-ado)
# Chain of SCRIB_2, Q14160 (Q14160 857-960): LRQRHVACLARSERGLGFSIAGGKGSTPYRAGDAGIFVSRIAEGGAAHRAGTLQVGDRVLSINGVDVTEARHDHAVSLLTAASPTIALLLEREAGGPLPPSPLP
row,pKd,Binder
1,below the threshold,"LKVPPEERLI [CRB2, Q5IJ48]"
2,below the threshold,"YRLAQESGLV [ABCC6, O95255]"

# Target: FRMPD2_1, Q68DX3
# Assay: holdup assay
# Design: key: below the threshold = too weak to quantify, mostly under pKd 3.1 to 4
# Conditions: plain residues with an end cap or a label only (N-terminal biotin on a linker: ado-ado)
# Chain of FRMPD2_1, Q68DX3 (Q68DX3 770-861): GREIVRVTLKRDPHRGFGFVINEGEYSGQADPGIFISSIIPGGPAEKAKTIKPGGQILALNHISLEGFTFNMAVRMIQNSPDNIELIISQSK
row,pKd,Binder
1,below the threshold,"LKVPPEERLI [CRB2, Q5IJ48]"
2,below the threshold,"YRLAQESGLV [ABCC6, O95255]"
